Values joined by “and” are separate entries in the source; they are usually repeats but may differ in a detail not shown here. Equal entries are not always repeated.

The target of assay [1] is T1, calmodulin 2 (CaM2), purified recombinant protein (M. truncatula). As to the kind of experiment: BLI; 20 mM CaCl2. Background: BLI is a label-free optical method that tracks binding on a fibre tip over time.
Assay [2] has as its target T1, calmodulin 2 (CaM2), purified …. As to the kind of experiment: BLI; 20 mM CaCl2. The source holds these as a separate data set.
The target is the same in assay [3]. Description: ITC; 5 mM CaCl2. (In general: Isothermal titration calorimetry measures the heat released or taken up as one component is titrated into another.)

B1: His6-MBP:CtermCNGC15c (domain or fragment)
chain: LIGNMQTYLQSITVRLEEWRVKRTDTEQWMHHRQLPPELRESIRKYNQYKWVATRGVEEEDLLKGLPLDLRREIKRHLCLELVRGVPLFDQMDERMLDAICERLKPALCTEGTYLVREGDPVNEMLFIIRGHLDSYTTNGGRDGFFNSCRIGPGDFCGEELLTWALDPRPSVILPSSTRTVKAFSEVEAFALIAEDLKFVASQFRRLHSKQLRHKFRFYSHQWRTWAACFIQAAWRRHKKRKEAAELRAKENLVAASEAENEIAKKYGKGFVVYGTRVARSTRKGVNMHSGTNSGVVSSLQKPTEPDFSDE
For B1, in assay [1], the Kd came out at 14.6 µM. Further, the koff in assay [2] came out at 0.077 s⁻¹.

Regarding AACFIQVAWRRTIQEKKG [CNGC15b-IQ peptide], the Kd in assay [3] was 1.39 µM.

B2: His6-MBP:CtermCNGC15b (domain or fragment)
chain: GNMQTYLQSTTVRLEEWRVKRTDTEQWMHHRQLPQELRQSVRKYDQYKWIATRGVDEESLLRGLPLDLRRDIKRHLCLELVRRVPLFDAMDERMLDAICERLKPALCTENTYLVREGDPVNEMLFIIRGNLDSYTTDGGRTGFFNSCRIGPGDFCGEELLTWALDPRPTMVIPSSTRTVKAISEVEAFALIAEDLKFVASQFRRLHSKQLRNKLRFHSHQWRTWAACFIQVAWRRTIQEKKGSC
With B2, in assay [1], the Kd was determined as 59 µM. Further, in assay [2], the koff came to 0.43 s⁻¹.

B3: His6-MBP:CtermCNGC15a (domain or fragment)
chain: GNMQTYLQSTTIRLEEWRIRRTDTERWMHHRQLPHYLKENVRRHDQFRWVATRGVDEEAILRDLPVDLRRDIKRHLCLNLVRQVPLFDQMDDRMLDAICERLKPTLCTPGTCIVREGDPVDEMLFIVRGRLDSCTTNGGRTGFFNTCRIGSGDFCGEELLPWALDPRPTAVLPSSTRTVRAITEVEAFALIAEDLKFVAAQFRRLHSKQLRQTFRFYSHQWRTWAACFIQAAWFRYKRMKETNEVKEKENLMMMSNVKYYGNDDSQYFSAPLQVPKGSSYSMYSGKLVGSLRRGRSMRYGSELDMLGTLRKPIEPDFNDDGD
On to B3, for which, in assay [1], the Kd turned out to be 526 µM. Besides, in assay [2], the koff is 0.77 s⁻¹.

Take AACFIQAAWRRHKKRKEA [CNGC15c-IQ peptide]: the Kd in assay [3] is 0.644 µM and 0.64 µM.

One may read the Kd as the free concentration of one partner at which half of the binding sites on the other are occupied at equilibrium, for simple one-to-one binding. As a reminder, the koff is the rate constant with which the complex falls apart.
